Experimental data published in patent US7083777B1, “Immunomodulating polymers” (priority 1999, dated 2006).

Assays:
human T cells = type: cell-based; conditions: 20 μg/ml, 6 days post-incubation
B. fragilis [1] = assay: Rat model of intraabdominal sepsis, abscess formation after B. fragilis challenge; type: in vivo; conditions: 50 μg dose
[2] = 0.01% solution of about 1500 kDa HA; model normally produces more than 70% adhesions; cited from earlier work
B. fragilis [3] = assay: IL-10-mediated protection against abscess formation; type: in vivo, rat
Protocol: In order to examine further the role of IL-10 in the abscess model, male Wistar rats (150 g) were treated with recombinant IL-10, anti-IL-10, or isotype antibody control beginning on the day of challenge with 1×10^8 cfu B. fragilils. Further comparison was made using a group treated with Streptococcus pneumoniae type I CP alone or together with anti-IL-10. Animals were sacrificed and examined six days after challenge.

B. fragilis [4] = assay: Protection against abscess formation by recombinant cytokine given intracardially at challenge; type: in vivo, rat; conditions: 100 pg intracardiac at time of challenge, 10^8 cfu B. fragilis; Experiment A
[5] = 0.2 μg i.p. at 0, 24, 48 and 72 hours relative to challenge

With poly-L-lysine the “T cell activation (in words)” value (human T cells) was “did not stimulate T cell proliferation” and the “Protection against abscess formation vs saline (in words)” value (B. fragilis [1]) was “did not protect against abscess formation”.

For hyaluronic acid [HA], the “prevention of severe intra-abdominal adhesions (in words)” value [2] is listed as “effectively prevents all severe intra-abdominal adhesions”.

B1: recombinant IL-10: recombinant interleukin-10 (protein, UniProt P22301 19-178, looked up)
Interleukin-10: SPGQGTQSENSCTHFPGNLPNMLRDLRDAFSRVKTFFQMKDQLDNLLLKESLLEDFKGYLGCQALSEMIQFYLEEVMPQAENQDPDIKAHVNSLGENLKTLRLRLRRCHRFLPCENKSKAVEQVKNAFNKLQEKGIYKAMSEFDIFINYIEAYMTMKIRN
With B1 the “Protection against abscess formation vs isotype control antibody (in words)” value (B. fragilis [3]; 0.2 μg i.p.) was “protected from abscess formation”, the “Abscess formation (%)” value (B. fragilis [3]; [5]) was 13% and the “No. animals with abscess/total” value (B. fragilis [3]; [5]) was 2/16.

B2: IL-4: interleukin 4 given at 100 pg as comparison (protein, UniProt P05112 25-153, looked up)
Interleukin-4: HKCDITLQEIIKTLNSLTEQKTLCTELTVTDIFAASKNTTEKETFCRAATVLRQFYSHHEKDTRCLGATAQQFHRHKQLIRFLKRLDRNLWGLAGLNSCPVKEANQSTLENFLERLKTIMREKYSKCSS
With B2 the “Abscess formation (%)” value (B. fragilis [4]) was 75%.
